Results from US20240026407A1, “MODIFICATION OF SAPONINS” (GLAXOSMITHKLINE BIOLOGICALS SA, priority 2020, published 2024).

B1: 1024 (protein)
chain: MKRTLLLTFLLLSVSALCFSQKLVEVAKGYSCTSVNTTIFRNNSLVTHGDEQYISYYDADGYLVLGKRKLNSKQWTLHRTQYRGNVKDAHNIISIMVDGEGYLHVSFDHHGHKLNYCRSIAPGSLELGDKMPMTGVDEGNVTYPEFYPLTDGDLLFVYRSGSSGRGNLVMNRYSLKDHKWARVQDVLIDGEDKRNAYWQLYVDEKGTIHLSWVWRETWQVETNHDLCYARSFDNGVTWYKSDGEQYKLPITASNAEYACRIPQNSELINQTSMSADAGGNPYIATYWRSSDSEVPQYRIVWNDGKTWHNRQVTDRKTPFTLKGGGTKMIPVARPRIVVEDGEIFYIFRDEERGSRVSMAHTADVANGKWIVTDLTDFSVDAWEPSHDTELWKKQRKLNLFVQHTCQGDGERTAEIEPQMIYVLEANTNTKK
modifications: Bacteroides thetaiotaomicron
B2: 1058 (protein, listed as Cyclobacterium marinum)
chain: MKLTTYYFCLIAGLCSLFTFGLHAQESAIYKQMRQNFQQPPNTAKPTVYHWWLGGDVDTVRLKEEILSFDKAGIAGFTIFEIGSRDTVFVGAGPEFLGEASLETIKVAVEEAGKYGMEVGLNTASSWNAGGNWLTPKHAAKSIYQRKVNVSGGGKEKIKLPFPDIPEKDPRGRKRLISYGKDGKPVYSEEIAVLAIPLVGENAAIDTSLIKDVSIYFDANKEVLNWDVPEGDWKIVRYVSSNSGENLVLPSKYSAGPIVDHFDADATAFHFNYIIDRLESKLGDLRKTSLKNLYMASYEARGFNWTPTLPQEFQELNGYDIKKFLPILFGEVSLSQEATAAFRAGFQRTLSELMIKNFYMKSKEICNAHGLKNNSEAGGPGYPLHDVPVEPLKALGKGLDIPRGEFWINHHNFSEEGMDVLRVVKEVSSASNIYGVGMVEMEAFTTFQQWQEGPYEMKPMGDRAFAEGMNRVVVHGSTHNPKGTGNPGIVYHAGTHYNDKRVWWKKVRPFNDYLARISYVLQEADFQSDVLYYYGDTIPNYGGHKRSRFNPGEGYDFELLNTEILFGLEVKNGKIINPRNGAEFKVLALTKEHEINPKVLSKLEQMASSGAIITGPKPNRIAPERNMKELPNMNGWLDNLWKPFSKQSFKPGSKAIYYNVSVGEILKALELSPDFSYKGNGFYTLDYTHYQKGDMDFYFIVNTTGEWLSRDLIFRQEGKVPELWNPENGNISPIPIYKETEEGISLPLSLAPHESAFVVFKPGIKPVHFTKIAHGGIHPPKVRYSDQGIEFWEEGEFGLGHGEDTLILNNFPNVKSLEGAWEIYFPEGWGAPDKAIFPELKSWTESENEGIKYFSGTARYEKKFIHEMHASEYPEAKIYLDLGDLSHVAEVWLNDKPLGITWSKPYRFDVTEAIKPGINTLKIEVANTWSNRLTGDAITGKDYTQTHVNNTVIKGMPNFRVTWENAPLIPSGILGPVTLTTVLPIAMPK
B3: 1043 (protein, listed as Flavobacterium johnsoniae)
chain: MKLSLKTFFYTMLLFSFFHAFSQEKLVSPWPESSNINQPWARWWWMGSAVDKPNLKRSLIDFHKAGIGGVEITPIYGVKGEENNFIDYLSPKWMEMLDYTIHVSDSLKMQVDMVLGTGWPYGGSHVTLPHAATKLIVEKYTVKKNETFDRDITVDSSKEKTPASLLYVVAYGNDGSFVNLTNELQNKKVNVKDKGLEGSNIKLPNKLEPNKLNWKAKKADYTIYAVFSGKTGQQVKRAAPGGKGYTLDHYSEEALKAYVIPFNEALKGREGKIRAVFNDSFEVYGTDFTPNFFEEFQKLRGYDLKKQLPVLLNETDNEIGNRIRSDYRQTISDLLLNKFDKFWTNWAHSKNFKTKLQAHGSPGNLIDLYASADIPECETFGSMPFDIPGFRRDKEDIREGDADPVMLKFSSSAAHISGKNLVSSETFTWLREHFKTALSQCKPEAEDLMLNGVNHIFLHGSTYSPDRAVWPGWQFYASVNFNSNNTIWEDAPALFSYISNCQSLLQQGKPDNEILLYWPIFDAWDKYEKGTLFYQFKIHSLSDWLYGTSFYDTTKNLMKKGYSVDFISDNFIAEAKVVNGNIVLPGGNFKSLVIPSCKKMPVETLQKLIELKKAGACILFEGLPESVPGFKDYKKQEQNLKNLLAENKIQAVSNIFTSLEDAKILPESLVNTGLKSIRRDINGEKIYYLVNHTAKTIDDFIPLQVENKEIILLDPLTHESGNAIVNKKDKITYVKIKIEPGQSYFLKTENTASQKKWNYFESASEPIALKGNWKLSFDKGGPKLPADAVVSNLESWTKLSPDAEAFSGSAAYTLQFENPNPKIENWSLNLGDVRESAKVWLNDEFIGTAWSVPYKLNIQKLKPGKNVLKIQVTNLPANRIRDMELKGQEWKIFHEINMVDKDYKKFDATKWIPMPSGLLGPVTLTALKQEN
B4: 1011 (protein, listed as Paenibacillus sp.)
chain: MQSNTAVLLKGGDAVYMKVKGDTDNMAAKDWGDWSARWIWLQEEQGNADKDARHERVYFRRVFELPAGTGKAYSLNMAITGDSRYRLFVNGQRQWAGPCKGHEHVQYYEEFNLEGILQPGINVIAVTVVHYAGTAPFEMGEDGPLSVWRSEQGGLLVEAEITADGQLVQELPTDTSWKAIRDLSYRLRPFPMMRWMGGLEEAAGDTALRDWTLPEYDDSAWSAARIVQPVRDDYGQLTPWQLERRPVPLLYEQEQCFWKLMRSSCGEGKALFTAGHRLELRDGASSTVPSIAGPAAEGVLVQAGQQLWLELDAGELTTGYLQLKLQGGGGSLITLQYAECYEEETGDEEVRRKAVRDEMREQVLRGGYDSYRPAGYGTEDQPEVYEPFWFRTFRYVRLEVHAGHEPLRITGINYRETGYPLQLQGSFHCSDERYNRLWELSVRTLSRCMHETYEDTPYYEQLQYTMDTRLMMEFTYLLSGDDRLARRAMEDYRASQLPNGMLQSRYPSVLPQVIPSFSLYWIGMIHDHYRVFRDLTLVKHYRTAMLSVLDWFDQRLTPEGLVDRTPRQYWNYYDWVEEWPLGAPDCTNEAPATLMSLMYAFALGQAAELLEASGWTQIAAELRQRKAAVNAAVLDNCRQADGPLFRDSPEAGPEVQLSQHTQVWAVLAGTVSAAEGEALLQTVLTDTSMAKLSLPMSYYLFRALELSGMYDRSYGLWTRWMKQLELGLTTLPEIDSADTRSDCHAWSALPITEFTRGILGVRQDIDGIILQPHCGDLQYASGAVSTEQGLITVSWEITTEEGVEVFRLEAVWTPGSAITVILPNGEVQKSDTGRIEIDIRGFNC
B5: 998 (protein)
chain: MLSIALAAALAAGAVAPDWHDGLDWHGVHVAISRDAQQGYTLAWPYGQRTIAAQPLATQTASPLFDGLFAMAQDDLKQDSVSAIRDGAFDHGQPIPCQCFETGLKWPYVWTRDLSYAIDLGLWRFDPARSRNGLKFKLSGVRVASAPQGPAPKRLYPMQDTGSGGSWPISTDRVVWFLGARHLLDDQAFADDVYRALDATLAQDRQYAFDAGFGLYRGETSFLDWREQSYPAWTADEVTFIAQSYALSTNVLHYQALQLAANLADTHHDAKAAAGYRADAAALKAAINAHFWRAERGMYMSYLSGDGTPYDSYDLLGIALAIDSGVAGGERAKQALANYPTWPAGSPVIWPERADQPIYHNRAIWPFVSAYALRAARLTEQPARIAHEIESVLRGAALYGSNMENYELLTQGQHVDEGKLSGPVVNSPRQLWSVAAALAVVTEGVFGLNEDGSVEPKLPTALVPMLFGQRRTITLDLHERQITLQLPEKISGNLLVADRTRTQGTATTVTLKAVQVPDAPLRTDAPLYAPLAPAAPVVQAAGNGWRVSAEGKVRLYLNGRAHGDIDGTATLPRQPGLTCFSATRVDAHGLESLHSPDTCVGETAKVNGSWPRRWTAPATGRYRVALDYANDHGPINTGITAAVKMLEVSCAGSDPQRLPIVMPHSVRAQRSTWGTFTAQAGSACRFALDDGFNMSYLAHFAHYTANNGSGGNGGSSGPLNQAEVHALLIAPLAADRGTP
modifications: Rhodanobacter denitrificans

Columns and labels:
Format in all cases: biochemical, Quillaja saponaria
[1] = Experiment 6-1: screening of rhamnosidases for derhamnosylation of saponins in treated bark extract (2%), QS-17 2310 to QS-18 2164 (PAR %); conditions: TBE 2%, pH 7.5, 30 degC, 18 h; TIC peak area ratio percent, LCMS/MS; negative controls 3.061, 2.429
[2] = Experiment 6-1: screening of rhamnosidases for derhamnosylation of saponins in treated bark extract (2%), QS-17 2296 to QS-18 2150 (PAR %); conditions: TBE 2%, pH 7.5, 30 degC, 18 h; TIC peak area ratio percent of rhamnosylated starting saponin to derhamnosylated product, LCMS/MS; negative controls 4.876, 5.225
[3] = Experiment 6-1: screening of rhamnosidases for derhamnosylation of saponins in treated bark extract (2%), desglucosyl-QS-17 2134 to QS-21 1988 (PAR %); conditions: TBE 2%, pH 7.5, 30 degC, 18 h; TIC peak area ratio percent, LCMS/MS; negative controls 2.719, 2.158
[4] = Experiment 6-1: specificity of rhamnosidases towards other rhamnose residues (C3 saccharide rhamnose, C28 saccharide rhamnose); conditions: TBE 2%, pH 7.5, 30 degC, 18 h; LCMS/MS; negative controls 0.18, 0.17

Row | Molecule | Peak57 (PAR %) [1] [%] | QS-17 (PAR %) [2] [%] | Peak75 (PAR %) [3] [%] | ratio PP/QS-21 [4]
1 | B1 | 2.924 | 5.145 | 2.806 | 0.17
2 | B2 | 3.144 | 5.121 | 2.398 | 0.17
3 | B3 | 3.119 | 5.098 | 2.791 | 0.15
4 | B4 | 3.124 | 5.089 | 2.854 | 0.19
5 | B5 | 3.326 | 5.111 | 2.402 | 0.15
